# Results: article PMC7736295 (Cell Discovery, 2020)
# B1: Mint1-CID (residues 338-397) [not stated] / CASK-CaMK (residues 1-337) [not stated] (parent)
# chain 1: QRYSKEKRDAISLAIKDIKEAIEEVKTRTIRSPYTPDEPKEPIWVMRQDISPTRDCDDQR
# chain 2: MADDDVLFEDVYELCEVIGKGPFSVVRRCINRETGQQFAVKIVDVAKFTSSPGLSTEDLKREASICHMLKHPHIVELLETYSSDGMLYMVFEFMDGADLCFEIVKRADAGFVYSEAVASHYMRQILEALRYCHDNNIIHRDVKPHCVLLASKENSAPVKLGGFGVAIQLGESGLVAGGRVGTPHFMAPEVVKREPYGKPVDVWGCGVILFILLSGCLPFYGTKERLFEGIIKGKYKMNPRQWSHISESAKDLVRRMLMLDPAERITVYEALNHPWLKERDRYAYKIHLPETVEQLRKFNARRKLKGAVLAAVSSHKFNSFYGDPPEELPDFSEDPTS
# Variants of: B1
# Experiment: ITC
# Settings: with CASK-CaMK (residues 1-337); Mint1-CID mutant titrated into CASK(1-337)
row,Kd [nM],Variant
1,270,chain 1 I15A I18A I22A
